Data: publication PMC9372883 (Antibody Therapeutics, 2022)
Blank lines part the entries; values can stand above or below the binder they belong to.

Molecular target: T1, P9-CCR7 (human, UniProt P32248 25-378)
T1 sequence: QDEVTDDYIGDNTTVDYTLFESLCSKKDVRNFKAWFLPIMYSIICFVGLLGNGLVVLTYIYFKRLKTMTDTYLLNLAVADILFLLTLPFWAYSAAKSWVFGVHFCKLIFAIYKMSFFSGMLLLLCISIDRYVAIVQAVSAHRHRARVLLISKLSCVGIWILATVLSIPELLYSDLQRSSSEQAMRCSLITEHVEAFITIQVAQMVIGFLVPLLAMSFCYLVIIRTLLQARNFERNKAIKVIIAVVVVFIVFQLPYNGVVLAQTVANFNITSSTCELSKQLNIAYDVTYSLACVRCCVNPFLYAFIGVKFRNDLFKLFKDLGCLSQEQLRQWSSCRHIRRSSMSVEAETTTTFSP
Assay: ELISA

Kd: 11 nM
B1: CCL21-H6-Flag (ligand)
chain: SDGGAQDCCLKYSQRKIPAKVVRSYRKQEPSLGCSIPAILFLPRKRSQAELCADPKELWVQQLMQHLDKTPSPQKPAQGCRKDRGASKTGKKGKGSKGCKRTERSQTPKGP

Kd: 19 nM
B2: CCL19-H6-Flag (ligand)
chain: GTNDAEDCCLSVTQKPIPGYIVRNFHYLLIKDGCRVPAVVFTTLRGRQLCAPPDQPWVERIIQRLQRTSAKMKRRSS
